Turning to recombinant human MMP9, the “in vitro protease digestion (data not shown)” value was “The other cleavable moieties (such as CM2, CM5-CM10) was also cleavable in vitro by both MMP2 and MMP9 (data not shown)” in the series on CM5; “The other cleavable moieties (such as CM2, CM5-CM10) was also cleavable in vitro by both MMP2 and MMP9 (data not shown)” with CM10; “The other cleavable moieties (such as CM2, CM5-CM10) was also cleavable in vitro by both MMP2 and MMP9 (data not shown)” in the series on CM8; “The other cleavable moieties (such as CM2, CM5-CM10) was also cleavable in vitro by both MMP2 and MMP9 (data not shown)” with CM7; “The other cleavable moieties (such as CM2, CM5-CM10) was also cleavable in vitro by both MMP2 and MMP9 (data not shown)” in the series with CM9; “The other cleavable moieties (such as CM2, CM5-CM10) was also cleavable in vitro by both MMP2 and MMP9 (data not shown)” with CM6. Further, in the series on CM2, the “in vitro protease digestion (data not shown)” value was “The other cleavable moieties (such as CM2, CM5-CM10) was also cleavable in vitro by both MMP2 and MMP9 (data not shown)”. The “in vitro protease digestion, polyacrylamide gel” value with SB1902-C5 is “The mutated substrate CM4 was cleavable in vitro by both MMP2 and MMP9 enzymes, with an enzyme dose-dependent manner”; in the series with SB1902-C4 it was “the non-cleavable G4S linker in SB1902-C4 was resistant to both MMP2 and MMP9 enzyme digestion”; in the series on SB1902-C2, “The mutated substrate CM1 was cleavable in vitro by both MMP2 and MMP9 enzymes, with an enzyme dose-dependent manner”.

The record behind these values is patent US20260035426.

Sequence of recombinant human MMP9 (chain, as listed by the source): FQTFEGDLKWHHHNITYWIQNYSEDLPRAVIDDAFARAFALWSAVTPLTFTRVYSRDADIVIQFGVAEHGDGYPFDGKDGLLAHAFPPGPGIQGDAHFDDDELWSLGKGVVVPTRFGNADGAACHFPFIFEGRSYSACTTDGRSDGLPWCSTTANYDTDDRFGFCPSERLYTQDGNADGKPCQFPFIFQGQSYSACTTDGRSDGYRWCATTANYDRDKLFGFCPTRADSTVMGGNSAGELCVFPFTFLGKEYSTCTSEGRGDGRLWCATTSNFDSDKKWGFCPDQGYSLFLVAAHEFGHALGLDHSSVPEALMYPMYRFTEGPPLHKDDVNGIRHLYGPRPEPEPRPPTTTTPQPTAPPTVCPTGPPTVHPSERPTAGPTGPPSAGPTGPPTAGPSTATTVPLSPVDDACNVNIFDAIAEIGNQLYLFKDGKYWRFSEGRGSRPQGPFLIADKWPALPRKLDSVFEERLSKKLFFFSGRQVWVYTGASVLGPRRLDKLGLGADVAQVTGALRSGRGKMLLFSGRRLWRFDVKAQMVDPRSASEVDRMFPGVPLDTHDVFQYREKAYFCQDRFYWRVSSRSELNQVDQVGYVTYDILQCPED
Sequence of SB1902-C5 (chain, as listed by the source, chain 1 of 2): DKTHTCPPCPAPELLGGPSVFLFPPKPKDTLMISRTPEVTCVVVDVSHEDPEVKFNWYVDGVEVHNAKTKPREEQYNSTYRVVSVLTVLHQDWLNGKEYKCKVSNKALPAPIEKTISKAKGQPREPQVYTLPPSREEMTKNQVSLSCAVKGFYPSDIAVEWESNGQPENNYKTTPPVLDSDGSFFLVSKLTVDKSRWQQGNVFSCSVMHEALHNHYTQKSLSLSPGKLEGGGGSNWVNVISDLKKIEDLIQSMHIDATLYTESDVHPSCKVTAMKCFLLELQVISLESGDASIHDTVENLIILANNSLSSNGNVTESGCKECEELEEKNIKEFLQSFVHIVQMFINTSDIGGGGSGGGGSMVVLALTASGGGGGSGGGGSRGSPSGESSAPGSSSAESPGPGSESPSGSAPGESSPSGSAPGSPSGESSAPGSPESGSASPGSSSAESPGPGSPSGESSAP
Sequence of SB1902-C5 (chain, as listed by the source, chain 2 of 2): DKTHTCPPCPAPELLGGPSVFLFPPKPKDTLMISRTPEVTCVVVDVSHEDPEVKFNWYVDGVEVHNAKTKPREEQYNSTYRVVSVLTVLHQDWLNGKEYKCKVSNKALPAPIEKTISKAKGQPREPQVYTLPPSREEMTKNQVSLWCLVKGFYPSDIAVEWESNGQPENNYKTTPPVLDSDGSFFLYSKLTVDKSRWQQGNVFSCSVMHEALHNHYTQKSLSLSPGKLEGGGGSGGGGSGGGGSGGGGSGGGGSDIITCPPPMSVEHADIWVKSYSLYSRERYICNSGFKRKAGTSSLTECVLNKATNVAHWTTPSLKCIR
Sequence of SB1902-C2 (chain, as listed by the source, chain 1 of 2): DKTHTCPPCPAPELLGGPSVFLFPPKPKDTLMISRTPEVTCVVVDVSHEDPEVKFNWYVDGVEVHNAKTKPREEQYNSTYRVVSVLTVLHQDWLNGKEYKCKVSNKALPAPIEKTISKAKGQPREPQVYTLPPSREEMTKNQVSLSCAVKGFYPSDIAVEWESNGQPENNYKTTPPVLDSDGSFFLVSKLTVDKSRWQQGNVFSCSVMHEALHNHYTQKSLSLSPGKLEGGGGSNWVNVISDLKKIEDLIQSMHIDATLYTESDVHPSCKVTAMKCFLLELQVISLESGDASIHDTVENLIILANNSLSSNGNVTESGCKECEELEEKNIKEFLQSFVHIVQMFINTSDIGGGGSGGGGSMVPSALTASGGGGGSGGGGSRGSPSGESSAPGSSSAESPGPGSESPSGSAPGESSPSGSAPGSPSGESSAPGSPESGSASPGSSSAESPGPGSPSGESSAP
Sequence of SB1902-C2 (chain, as listed by the source, chain 2 of 2): as the sequence (chain, as listed by the source, chain 2 of 2) above
Sequence of SB1902-C4 (chain, as listed by the source, chain 1 of 2): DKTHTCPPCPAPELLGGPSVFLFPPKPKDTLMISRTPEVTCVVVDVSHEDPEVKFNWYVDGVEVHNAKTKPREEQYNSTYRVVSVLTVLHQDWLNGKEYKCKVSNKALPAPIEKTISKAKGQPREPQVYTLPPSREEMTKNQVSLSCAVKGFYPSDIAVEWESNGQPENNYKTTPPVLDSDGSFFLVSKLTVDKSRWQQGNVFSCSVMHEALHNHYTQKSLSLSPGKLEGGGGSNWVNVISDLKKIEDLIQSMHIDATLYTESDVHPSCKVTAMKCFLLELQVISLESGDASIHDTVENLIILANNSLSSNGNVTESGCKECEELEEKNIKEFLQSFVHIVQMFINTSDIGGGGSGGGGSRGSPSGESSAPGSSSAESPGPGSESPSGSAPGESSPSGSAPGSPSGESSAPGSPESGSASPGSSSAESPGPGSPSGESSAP
Sequence of SB1902-C4 (chain, as listed by the source, chain 2 of 2): as the sequence (chain, as listed by the source, chain 2 of 2) above
